Results: publication PMC7171158

Molecular target: NusA-AR2^D443C labeled with fluorescein-5-maleimide (E. coli) (UniProt P0AFF6)
Experiment: fluorescence polarisation; fluorescence anisotropy; 25 nM fluorescein-labeled NusA-AR2^D443C with increasing unlabeled protein; 25 °C; 50 mM Na-P pH 6.5, 100 mM NaCl, 150 mM glucose, 5 mM DTT, 0.05% Tween; two-state binding model

Kd: 8 µM
Substance: C-terminal domain of the RNA polymerase α subunit (αCTD) (domain or fragment)
